Target: monkey CD47 on LLC-MK2 cells (rhesus monkey) (UniProt H9ERV1)
Assay: flow cytometry, LLC-MK2 cells

EC50 (read off the curve): 0.06 nM
Substance: Hu5F9-G4 (antibody)

Reference: US20250288643A1
